The values below come from patent US20100260805A1 (CIRCASSIA, published 2010).

The target in experiment [1] is T1, DQA1*0102/DQB1*0602 (human, UniProt P01920 33-230, limits assumed).
T1 construct: human MHC class II allotype
T1 MHC II alpha: not shown
T1 MHC II beta: not shown
The experiment in a line: competitive MHC class II binding assay; competitor: control peptide Human Insulin B 1-15.

For experiment [2], the target named is T2, HLA-DRB1*1101 (human).
T2 construct: human MHC class II allotype
Briefly: competitive MHC class II binding assay.

For experiment [3], the target named is T3, HLA-DRB1*0401 (human).
T3 construct: human MHC class II allotype
The experiment in a line: competitive MHC class II binding assay.

The target in experiment [4] is T4, HLA-DRB1*1301 (human).
T4 construct: human MHC class II allotype
Briefly: competitive MHC class II binding assay.

In experiment [5] the target is T5, HLA-DRB1*0701 (human).
T5 construct: human MHC class II allotype
The experiment in a line: competitive MHC class II binding assay.

The target of experiment [6] is T6, HLA-DRB1*0301 (human).
T6 construct: human MHC class II allotype
Briefly: competitive MHC class II binding assay.

The target of experiment [7] is T7, HLA-DRB1*0101 (human).
T7 construct: human MHC class II allotype
Briefly: competitive MHC class II binding assay.

The target in experiment [8] is T1, DQA1*0102/DQB1*0602. Briefly: competitive MHC class II binding assay.
Experiment [9] concerns the target T8, HLA-DRB1*1501 (human).
T8 construct: human MHC class II allotype
The experiment in a line: competitive MHC class II binding assay.

For experiment [10], the target named is T2, HLA-DRB1*1101. Briefly: competitive MHC class II binding assay; competitor: control peptide Influenza haemagglutinin 307-319.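 Also: each peptide was tested for its capacity to displace a known reference binder from human MHC class II allotypes, and its IC50 is expressed relative to that of the reference.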
The target of experiment [11] is T3, HLA-DRB1*0401. The description is as above.
Experiment [12] concerns the target T5, HLA-DRB1*0701. The experiment is described as above.

B1: HDM03C (peptide)
peptide: RNQSLDLAEQELVDCASQH
Turning to B1, the “ratio of IC50 to that of the control peptide” value (“ratio of IC50” for short) in experiment [1] is 0.16 ratio.

B2: HDM29A (peptide)
peptide: ETFDPMKVPDHSDK
Turning to B2, the binding result in experiment [2], in experiment [3], in [4], in experiment [5], in experiment [6] and in experiment [7] was “no binding” each time. Further, the binding result in [8] and in experiment [9] was “no binding” in each case.

B3: HDM22A (peptide)
peptide: EAVFEANQNTKTAK
For B3, the “ratio of IC50” value in experiment [10] worked out at 80 ratio; in experiment [11], 329 ratio.

B4: HDM29 (peptide)
peptide: ETFDPMKVPDHSD
Turning to B4, the binding result in experiment [2], in [3], in experiment [4], in [5], in experiment [6] and in experiment [7] was “no binding” throughout. In addition, the binding result in experiment [8] and in [9] was “no binding” each time.

B5: HDM51 (peptide)
peptide: VDFKGELAMRNIE
For the molecule B5, the “ratio of IC50” value in experiment [10] was 30.9 ratio; in experiment [12] it was 20.9 ratio.

B6: HDM27 (peptide)
peptide: AKIEIKASLDGLE
Turning to B6, the binding result in experiment [2], in experiment [3], in experiment [4], in experiment [5], in experiment [6] and in experiment [7] was “no binding” in each case. Moreover, the binding result in [8] and in experiment [9] was “no binding” in each case.

B7: HDM35 (peptide)
peptide: RGLKQMKRVGDAN
B7: in experiment [10], the “ratio of IC50” value was 1.26 ratio.

B8: HDM28 (peptide)
peptide: KAVDEAVAAIEKS
Take B8: the binding result in experiment [2], in experiment [3], in experiment [4], in [5], in experiment [6] and in experiment [7] was “no binding” in each case. Besides, the binding result in experiment [8] and in [9] was “no binding” throughout.

B9: HDM17 (peptide)
peptide: NSVNVPSELDLRSLRT
Turning to B9, the binding result in experiment [2], in experiment [3], in experiment [4], in [5], in experiment [6] and in experiment [7] was “no binding” throughout. Further, the binding result in experiment [8] and in experiment [9] was “no binding” in each case.

B10: HDM06 (peptide)
peptide: RYVAREQSCRRPN
In the case of B10, the entries for the “ratio of IC50” value in [1] and in experiment [10] were 0.86 ratio and 30.4 ratio, respectively.

B11: HDM30 (peptide)
peptide: DKFERHIGIIDLK
Regarding B11, in [12], the “ratio of IC50” value came to 6.2 ratio.

B12: HDM40A (peptide)
peptide: VSMEYDLAYKLGDLH
B12: the results for the “ratio of IC50” value in experiment [10] and in experiment [12] were 6 ratio and 2.29 ratio, respectively.
